Measured values: patent US20240059784A1 (Eli Lilly, published 2024)

T1: cynomolgus TfR ECD (cynomolgus)
T1 chain: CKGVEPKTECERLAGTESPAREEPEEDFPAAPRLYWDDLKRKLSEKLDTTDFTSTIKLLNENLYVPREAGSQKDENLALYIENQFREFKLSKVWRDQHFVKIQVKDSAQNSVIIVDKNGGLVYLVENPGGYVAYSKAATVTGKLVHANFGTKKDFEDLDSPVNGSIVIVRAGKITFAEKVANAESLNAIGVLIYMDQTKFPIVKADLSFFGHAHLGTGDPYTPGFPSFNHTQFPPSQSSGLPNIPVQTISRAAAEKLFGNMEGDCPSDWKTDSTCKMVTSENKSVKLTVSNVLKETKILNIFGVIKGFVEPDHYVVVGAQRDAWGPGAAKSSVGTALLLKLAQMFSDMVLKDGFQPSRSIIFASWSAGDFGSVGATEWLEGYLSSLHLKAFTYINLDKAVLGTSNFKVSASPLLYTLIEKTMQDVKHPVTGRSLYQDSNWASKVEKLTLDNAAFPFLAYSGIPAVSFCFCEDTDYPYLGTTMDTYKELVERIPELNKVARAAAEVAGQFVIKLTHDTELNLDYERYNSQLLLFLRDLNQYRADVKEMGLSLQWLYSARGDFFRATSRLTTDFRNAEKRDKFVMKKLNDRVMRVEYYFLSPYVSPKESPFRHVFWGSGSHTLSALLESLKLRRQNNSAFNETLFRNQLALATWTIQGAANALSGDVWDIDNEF


What was measured:
[1] = target: T2, human TfR ECD (His-tagged) (human, UniProt P02786 89-760); test: SPR (Biacore 8K), 25 C; His-tagged TfR ECD captured by anti-His antibody, TBP as analyte; single-cycle kinetics, 2-state fit
T2 construct: also called hTfR-ECD-6His; his-tagged hTfR-ECD
Procedure: (§1) An anti-His antibody was immobilized on a CM5 chip (Cytiva P/N 29104988) using standard NHS-EDC amine coupling on all four flow cells (Fc). Target (human or cynomolgus TfR ECD) were prepared in the running buffer at final concentration of 500 μg/mL.
(§2) Binding analysis was performed in a single-cycle kinetics manner. Each analysis cycle consists of (1) capturing the target (His-tagged human or cynomolgus TfR ECD) samples on separate flow cells (Fc2, Fc3 and Fc4); (2) injection of the lowest to highest concentration of antibodies or proteins over all Fc at 30 μL/min for 900 seconds followed by return to buffer flow for 1800 seconds to monitor dissociation phase; (3) regeneration of chip surfaces with injection of 10 mM glycine, pH 1.5, for 30 seconds at […] over all cells; and (4) equilibration of chip surfaces with a 10 μL (60-sec) injection of HBS-EP+. Data were processed using standard double-referencing and fit to a 2-state binding model using Biacore 8K Evaluation software, to determine the association rate (kₒₙ, M⁻¹s⁻¹ units), dissociation rate (koff, s⁻¹ units), and Rₘₐₓ (RU units). The equilibrium dissociation constant (KD) is calculated from the relationship KD=koff/kₒₙ, and is in molar units.
Target sequence in this assay (P02786 other isoform, or with tags, fused parts or gaps): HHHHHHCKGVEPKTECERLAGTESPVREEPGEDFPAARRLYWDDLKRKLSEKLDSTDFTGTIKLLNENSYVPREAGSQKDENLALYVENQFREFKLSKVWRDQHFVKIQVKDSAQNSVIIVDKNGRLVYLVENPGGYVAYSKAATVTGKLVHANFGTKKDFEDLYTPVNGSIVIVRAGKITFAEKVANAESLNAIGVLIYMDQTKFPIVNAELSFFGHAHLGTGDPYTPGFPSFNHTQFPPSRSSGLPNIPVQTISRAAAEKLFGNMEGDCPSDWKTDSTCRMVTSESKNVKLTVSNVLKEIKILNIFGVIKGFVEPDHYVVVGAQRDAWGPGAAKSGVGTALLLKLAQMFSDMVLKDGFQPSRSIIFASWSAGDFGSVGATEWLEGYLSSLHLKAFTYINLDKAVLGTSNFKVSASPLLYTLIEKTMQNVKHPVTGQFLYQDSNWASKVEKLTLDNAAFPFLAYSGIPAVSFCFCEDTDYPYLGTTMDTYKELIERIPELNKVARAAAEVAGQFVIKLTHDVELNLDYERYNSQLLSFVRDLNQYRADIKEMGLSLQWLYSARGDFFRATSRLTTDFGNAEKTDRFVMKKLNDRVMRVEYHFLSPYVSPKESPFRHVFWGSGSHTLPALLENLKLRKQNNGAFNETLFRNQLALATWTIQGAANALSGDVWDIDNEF

cynomolgus TfR ECD [2] = target: T1, cynomolgus TfR ECD; test: as above
Procedure: as §1, §2

human TfR (cell-bound) = target: T3, human TfR (cell-bound) (human, UniProt P02786 1-760); test: flow cytometry on hCMEC-D3 cells (endogenous human TfR), on ice, PE-labeled secondary
T3 construct: Endogenous receptor on hCMEC-D3 cells (stated); also called hTFR; human transferrin receptor on hCMEC-D3 cells
Procedure: (§3) Human endothelial line hCMEC-D3 (EMD Millipore SC066), endogenously expressing human TfR and MDCK cell line (ATCC CCL-34), engineered to express cynomolgus TfR were utilized to evaluate antibody/protein binding to cell-bound TfR. Cells were grown and maintained at submaximal confluence and detached from cultureware using Accutase cell detachment solution, washed, and allocated at 50000 cells per well for assessment of binding. Cells were treated with a viability stain then subsequently incubated with titrated concentrations of TfR binding proteins on ice. Cells were washed and binding of test antibodies or proteins was detected using a PE-labeled secondary reagent. Cells were then washed and read on the same day using a BioRad ZE5 cytometer. Analysis was performed post-acquisition in FlowJo, analyzing fluorescence of single, viable, non-debris events. EC50 values were derived by plotting geometric median PE intensity values across a given sample titration and fitting a sigmoidal (4PL) response curve in GraphPad Prism 8.3.0.

[3] = target: T4, cynomolgus TfR (on MDCK cells) (cynomolgus, UniProt H9EXL1 1-760 (rhesus entry)); test: flow cytometry on MDCK cells engineered to express cynomolgus TfR, on ice, PE-labeled secondary
T4 construct: whole, on cells; also called Cyno MDCK
Procedure: as §3

[4] = target: T2, human TfR ECD (His-tagged); test: SPR (Biacore 8K), 37 C; TfR ECD amine-coupled to CM4 chip, TBP as analyte; multi-cycle kinetics, 2-state fit; n = 3
Procedure: (§4) Target human and cynomolgous TfR ECD's were immobilized on a CM4 chip (Cytiva P/N 29104989) using standard NHS-EDC amine coupling. The TfR binding proteins were prepared at a final concentration of 0.3, 0.1, 0.033, 0.01, 0.0033, 0.001, 0.00033, 0.0001 μM respectively by dilution of stock solution into running buffer.
(§5) Binding analysis was performed in a multi-cycle kinetics manner. Each analysis cycle consists of (1) injection of the lowest to highest concentration proteins over all Fc at 50 μL/min for 140 seconds followed by return to buffer flow for 400 seconds to monitor dissociation phase; (2) regeneration of chip surfaces with injection of 3M magnesium chloride, for 30 seconds at 100 μL/min over all cells; and (3) equilibration of chip surfaces with a 50 μL (30-sec) injection of HBS-EP+. Data were processed using standard double-referencing and fit to a 2-state binding model using Biacore 8K Evaluation software, to determine the association rate (kₒₙ, M⁻¹s⁻¹ units), dissociation rate (koff, s⁻¹ units), and Rₘₐₓ (RU units). The equilibrium dissociation constant (KD) is calculated from the relationship KD=koff/kₒₙ, and is in molar units.

cynomolgus TfR ECD [5] = target: T1, cynomolgus TfR ECD; test: as above
Procedure: as §4, §5

cynomolgus TfR ECD [6] = target: T5, cynomolgus TfR ECD (cynomolgus); test: as above
T5 construct: extracellular domain; amine-coupled in the 37 C assay; also called Cyno TfR; His-tagged cynomolgus TfR ECD
Procedure: as §4, §5

T3 sequence (P02786 whole entry): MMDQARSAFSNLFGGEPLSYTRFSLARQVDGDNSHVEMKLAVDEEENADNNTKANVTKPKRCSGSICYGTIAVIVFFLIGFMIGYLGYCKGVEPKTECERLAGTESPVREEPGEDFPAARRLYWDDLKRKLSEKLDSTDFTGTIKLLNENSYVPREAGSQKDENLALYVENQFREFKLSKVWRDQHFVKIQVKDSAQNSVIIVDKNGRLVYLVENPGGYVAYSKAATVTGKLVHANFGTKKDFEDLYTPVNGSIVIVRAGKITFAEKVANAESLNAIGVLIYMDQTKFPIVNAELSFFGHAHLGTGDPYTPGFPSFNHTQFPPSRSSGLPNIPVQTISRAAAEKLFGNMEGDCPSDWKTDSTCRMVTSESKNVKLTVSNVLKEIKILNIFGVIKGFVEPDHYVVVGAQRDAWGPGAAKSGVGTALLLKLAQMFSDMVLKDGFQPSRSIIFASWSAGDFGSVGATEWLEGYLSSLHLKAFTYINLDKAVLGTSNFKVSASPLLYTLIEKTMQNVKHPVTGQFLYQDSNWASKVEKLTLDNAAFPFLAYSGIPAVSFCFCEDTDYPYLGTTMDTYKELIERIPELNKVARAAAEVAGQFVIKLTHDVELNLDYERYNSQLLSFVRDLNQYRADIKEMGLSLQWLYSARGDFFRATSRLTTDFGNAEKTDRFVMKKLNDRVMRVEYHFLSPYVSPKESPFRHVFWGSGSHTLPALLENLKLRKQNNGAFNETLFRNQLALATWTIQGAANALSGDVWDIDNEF

Binder | Kd [1] | Kd (cynomolgus TfR ECD [2]) | EC50 (human TfR (cell-bound)) | EC50 [3] | Kd [4] | Kd (cynomolgus TfR ECD [5]) | Kd (cynomolgus TfR ECD [6])
TBP1 (TBD1 Fab-hIgG4PAA Fc) (antibody, V domains shown) VH: EVQLVESGGGLVKPGGSLRLSCVASGFTFSSYSMNWVRQAPGKGLEWVSSISRSSSYIYYADSVKGRFTISRDNAKNSLYLQMNSLRAEDTAVYYCAREHGYSNSDAFDIWGQGTLVTVSS VL: DIQMTQSPSAMSASVGDRVTITCRASQGISNYLAWFQQKPGKVPKRLIYAASSLQSGVPSRFSGSGSGTEFTLTISSLQPEDFATYYCLQHNSYPRTFGQGTKVEIKR | 110 pM | 145 nM | 0.47 nM | 510 nM | 0.966 nM |  | 
TBP3 (TBD3 Fab-hIgG4PAA Fc) (antibody, V domains shown, Fab-Fc format, one HC and one LC) VH: EVQLVESGGGLVKPGGSLRLSCVASGFTFSSYSMNWVRQAPGKGLEWVSSISRSSSYIYYADSVKGRFTISRDNAKNSLYLQMNSLRAEDTAVYYCARIHGYSNSDAFDIWGQGTLVTVSS VL: DIQMTQSPSAMSASVGDRVTITCRASQGISHYLVWFQQKPGKVPKRLIYAASSLQSGVPSRFSGSGSGTEFTLTISSLQPEDFATYYCLQHNSYPRTFGQGTKVEIKR | 0.048 pM | 0.015 nM | 0.14 nM | 0.15 nM | 0.005 nM | 0.254 nM | 
TBP5 (TBD5 Fab-hIgG4PAA Fc) (antibody, V domains shown, Fab-Fc format, one HC and one LC) VH: EVQLVESGGGLVQPGGSLRLSCAASGFTFRTYWMHWVRQAPGKGLLWVSRINGDGSRTNYADSVKGRFTISRDNAKKTLYLQMNSLRAEDTAVYFCARSSYAFDVWGQGTMVTVSS VL: DVVMTQTPLSLPVTPGEPASISCRSSQSLLDSDDGSTYLDWYLQKPGQSPQLLIYLLSNRASGVPDRFSGSGSGTVFTLKISSVEAADVGVYYCMQRIEFPLTFGGGTKVEIKR | 590 pM | 1.47 nM | 4.83 nM | 1.63 nM | 4.25 nM | 156 nM | 
TBP6 (TBD6 Fab-hIgG4PAA Fc) (antibody, V domains shown, Fab-Fc format, one HC and one LC) VH: EVQLVESGGGLVQPGGSLRLSCAASGFTFRTYWMHWVRQAPGKGLVWVSRINSDGSRTNYADSVKGRFTISRDNAKNTLYLQMNSLRAEDTAVYYCARSSYAFDVWGQGTLVTVSS VL: DIVMTQTPLSLPVTPGEPASISCRSSQSLLDSDDGSTYLDWYLQKPGQSPQLLIYLLSNRASGVPDRFSGSGSGTDFTLKISRVEAEDVGVYYCMQRIEFPLTFGGGTKVEIKR | 60 pM | 7.7 nM | 1.2 nM | 0.76 nM | 2.25 nM | 92.5 nM | 
TBP14-SNCA siRNA (dsRNA No. 10 in Table 11a) (antibody, SNCA siRNA (dsRNA No. 10) conjugated through a linker at the engineered cysteine (A378C, EU numbering, by the name in Table 6b), Protein-siRNA conjugate of TBP14; also called TBP14-SNCA siRNA conjugate) heavy: EVQLVESGGGLVKPGGSLRLSCVASGFTFSSYSMNWVRQAPGKGLEWVSSISSSSSYIYYADSVKGRFTISRDNAKNSLYLQMNSLRAEDTAVYYCARRHGYSNSDAFDNWGQGTLVTVSSASTKGPSVFPLAPCSRSTSESTAALGCLVKDYFPEPVTVSWNSGALTSGVHTFPAVLQSSGLYSLSSVVTVPSSSLGTKTYTCNVDHKPSNTKVDKRVESKYGPPCPPCPAPEAAGGPSVFLFPPKPKDTLMISRTPEVTCVVVDVSQEDPEVQFNWYVDGVEVHNAKTKPREEQFNSTYRVVSVLTVLHQDWLNGKEYKCKVSNKGLPSSIEKTISKAKGQPREPQVSTLPPSQEEMTKNQVSLMCLVYGFYPSDICVEWESNGQPENNYKTTPPVLDSDGSFFLYSVLTVDKSRWQEGNVFSCSVMHEALHNHYTQKSLSLSLG light: DIQMTQSPSAMSASVGDRVTITCRASQGISHYLVWFQQKPGKVPKRLIYAASSLQSGVPSRFSGSGSGTEFTLTISSLQPEDFATYYCLQHNSYPWTFGQGTKVEIKRTVAAPSVFIFPPSDEQLKSGTASVVCLLNNFYPREAKVQWKVDNALQSGNSQESVTEQDSKDSTYSLSSTLTLSKADYEKHKVYACEVTHQGLSSPVTKSFNRGEC ESKYGPPCPPCPAPEAAGGPSVFLFPPKPKDTLMISRTPEVTCVVVDVSQEDPEVQFNWYVDGVEVHNAKTKPREEQFNSTYRVVSVLTVLHQDWLNGKEYKCKVSNKGLPSSIEKTISKAKGQPREPQVYTLPPSQGDMTKNQVQLTCLVKGFYPSDICVEWESNGQPENNYKTTPPVLDSDGSFFLASRLTVDKSRWQEGNVFSCSVMHEALHNHYTQKSLSLSLG |  |  | 298 nM | 225 nM | 541 nM |  | 
TBP14 (TBD4-one arm heteromab, A378C) (antibody, human IgG4 S228P, kappa, F234A L235A, One-armed antibody: two heavy chains (HC1 full, HC2 Fc only) and one light chain; no LC2) heavy: EVQLVESGGGLVKPGGSLRLSCVASGFTFSSYSMNWVRQAPGKGLEWVSSISSSSSYIYYADSVKGRFTISRDNAKNSLYLQMNSLRAEDTAVYYCARRHGYSNSDAFDNWGQGTLVTVSSASTKGPSVFPLAPCSRSTSESTAALGCLVKDYFPEPVTVSWNSGALTSGVHTFPAVLQSSGLYSLSSVVTVPSSSLGTKTYTCNVDHKPSNTKVDKRVESKYGPPCPPCPAPEAAGGPSVFLFPPKPKDTLMISRTPEVTCVVVDVSQEDPEVQFNWYVDGVEVHNAKTKPREEQFNSTYRVVSVLTVLHQDWLNGKEYKCKVSNKGLPSSIEKTISKAKGQPREPQVSTLPPSQEEMTKNQVSLMCLVYGFYPSDICVEWESNGQPENNYKTTPPVLDSDGSFFLYSVLTVDKSRWQEGNVFSCSVMHEALHNHYTQKSLSLSLG light: DIQMTQSPSAMSASVGDRVTITCRASQGISHYLVWFQQKPGKVPKRLIYAASSLQSGVPSRFSGSGSGTEFTLTISSLQPEDFATYYCLQHNSYPWTFGQGTKVEIKRTVAAPSVFIFPPSDEQLKSGTASVVCLLNNFYPREAKVQWKVDNALQSGNSQESVTEQDSKDSTYSLSSTLTLSKADYEKHKVYACEVTHQGLSSPVTKSFNRGEC ESKYGPPCPPCPAPEAAGGPSVFLFPPKPKDTLMISRTPEVTCVVVDVSQEDPEVQFNWYVDGVEVHNAKTKPREEQFNSTYRVVSVLTVLHQDWLNGKEYKCKVSNKGLPSSIEKTISKAKGQPREPQVYTLPPSQGDMTKNQVQLTCLVKGFYPSDICVEWESNGQPENNYKTTPPVLDSDGSFFLASRLTVDKSRWQEGNVFSCSVMHEALHNHYTQKSLSLSLG |  |  |  |  | 154 nM |  | 300 nM
